Measurements as given in the Immune Epitope Database (IEDB).
One block for each sequence: values may come before it.

Legend:
HLA-B*51:01 = experiment: IEDB peptide-MHC binding, purified MHC/competitive/radioactivity; filed as Kd, often an IC50 or EC50 that approximates it; ≥ and ≤ were set here for values at or beyond the usual limits of such assays
HLA-A*26:01 [1] = experiment: IEDB peptide-MHC binding, purified MHC/competitive/fluorescence; filed as Kd, often an IC50 or EC50 that approximates it; ≥ and ≤ were set here for values at or beyond the usual limits of such assays; conditions: source organism: Bacillus anthracis str. A2012
HLA-B*18:01 = experiment: IEDB peptide-MHC binding, purified MHC/competitive/radioactivity; filed as Kd, often an IC50 or EC50 that approximates it; ≥ and ≤ were set here for values at or beyond the usual limits of such assays
HLA-B*44:03 = experiment: as above
HLA-B*40:02 = experiment: as above
HLA-B*44:02 = experiment: as above
HLA-B*45:01 = experiment: as above
HLA-B*40:01 [2] = experiment: as above
HLA-A*01:01 = experiment: IEDB peptide-MHC binding, purified MHC/direct/fluorescence; filed as Kd, often an IC50 or EC50 that approximates it; ≥ and ≤ were set here for values at or beyond the usual limits of such assays
HLA-A*31:01 = experiment: as above
HLA-B*27:05 = experiment: as above
HLA-A*03:01 = experiment: as above
HLA-A*69:01 = experiment: as above
HLA-A*02:01 = experiment: as above
HLA-B*08:01 = experiment: as above
HLA-B*15:01 [3] = experiment: as above; conditions: source organism: Rhizobium wenxiniae
HLA-B*40:01 [4] = experiment: as above
HLA-A*26:01 [5] = experiment: as above
HLA-B*07:02 = experiment: as above
HLA-A*11:01 = experiment: as above
HLA-B*39:01 = experiment: IEDB peptide-MHC binding, purified MHC/competitive/fluorescence; filed as Kd, often an IC50 or EC50 that approximates it; ≥ and ≤ were set here for values at or beyond the usual limits of such assays; conditions: source organism: Rhizobium wenxiniae
HLA-A*24:03 = experiment: IEDB peptide-MHC binding, purified MHC/direct/fluorescence; filed as Kd, often an IC50 or EC50 that approximates it; ≥ and ≤ were set here for values at or beyond the usual limits of such assays
HLA-B*58:01 = experiment: as above
HLA-B*35:01 = experiment: IEDB peptide-MHC binding, purified MHC/competitive/radioactivity; filed as Kd, often an IC50 or EC50 that approximates it; ≥ and ≤ were set here for values at or beyond the usual limits of such assays
HLA-B*15:01 [6] = experiment: as above; conditions: source organism: Dengue virus 2 Jamaica/1409/1983
HLA-A*30:02 = experiment: as above; conditions: source organism: Dengue virus 1 Brazil/97-11/1997
HLA-B*57:01 = experiment: IEDB peptide-MHC binding, purified MHC/direct/fluorescence; filed as Kd, often an IC50 or EC50 that approximates it; ≥ and ≤ were set here for values at or beyond the usual limits of such assays
[7] = source organism: Dengue virus 2 Jamaica/1409/1983
[8] = source organism: SARS coronavirus Tor2
[9] = source organism: Rhizobium wenxiniae
[10] = source organism: Shewanella violacea
[11] = source organism: Haemophilus influenzae
[12] = source organism: Mammarenavirus choriomeningitidis
[13] = source organism: Mammarenavirus tacaribeense
[14] = source organism: Entamoeba histolytica HM-1:IMSS
[15] = source organism: Mammarenavirus whitewaterense

Sequence: LPLPWLPGA
Kd (HLA-B*51:01; [7]): 651 nM

Sequence: IVIAPAMGM
Kd (HLA-A*26:01 [1]): ≥ 20000 nM

Sequence: DPFPQSNAPI
Kd (HLA-B*51:01; [7]): 690 nM

Sequence: LAFITFLRV
Kd (HLA-B*51:01; source organism: Dengue virus 4 Philippines/H241/1956): 4240 nM

Sequence: VDYGVRFFFY
Kd (HLA-B*18:01; [8]): ≥ 38100 nM
Kd (HLA-B*44:03; [8]): 789 nM
Kd (HLA-B*40:02; [8]): ≥ 30400 nM
Kd (HLA-B*44:02; [8]): 823 nM
Kd (HLA-B*45:01; [8]): 451 nM
Kd (HLA-B*40:01 [2]; [8]): 16800 nM

Kd (HLA-A*01:01; [9]): ≥ 20000 nM
Kd (HLA-A*31:01; [9]): ≥ 20000 nM
Kd (HLA-B*27:05; [9]): ≥ 20000 nM
Kd (HLA-A*03:01; [9]): ≥ 20000 nM
Kd (HLA-A*69:01; [9]): ≥ 20000 nM
Kd (HLA-A*02:01; [9]): ≥ 20000 nM
Kd (HLA-B*08:01; [9]): 113 nM
Kd (HLA-B*15:01 [3]): ≥ 20000 nM
Kd (HLA-B*40:01 [4]; [9]): ≥ 20000 nM
Kd (HLA-A*26:01 [5]; [9]): ≥ 20000 nM
Kd (HLA-B*07:02; [9]): ≥ 20000 nM
Kd (HLA-A*11:01; [9]): ≥ 20000 nM
Kd (HLA-B*39:01): ≤ 1 nM
Sequence: FHLRSRFAF

Sequence: DEWSVATFY
Kd (HLA-B*18:01; [8]): 2.82 nM
Kd (HLA-B*44:03; [8]): 10.4 nM
Kd (HLA-B*40:02; [8]): ≥ 77300 nM
Kd (HLA-B*44:02; [8]): 316 nM
Kd (HLA-B*45:01; [8]): ≥ 77800 nM
Kd (HLA-B*40:01 [2]; [8]): ≥ 76200 nM

Sequence: TYGVCSKAF
Kd (HLA-A*24:03; source organism: West Nile virus): 24.5 nM

Kd (HLA-A*01:01; [10]): ≥ 20000 nM
Kd (HLA-A*31:01; [10]): ≥ 20000 nM
Kd (HLA-B*27:05; [10]): ≥ 20000 nM
Kd (HLA-B*58:01; [10]): ≥ 20000 nM
Kd (HLA-A*03:01; [10]): ≥ 20000 nM
Kd (HLA-A*69:01; [10]): ≥ 20000 nM
Kd (HLA-A*02:01; [10]): ≥ 20000 nM
Kd (HLA-B*08:01; [11]): 7470 nM
Kd (HLA-B*40:01 [4]; [10]): ≥ 20000 nM
Kd (HLA-A*26:01 [5]; [11]): 7120 nM
Kd (HLA-B*07:02; [10]): ≥ 20000 nM
Kd (HLA-A*11:01; [10]): ≥ 20000 nM
Sequence: ETKGKRRLL

Sequence: LMCHATFTM
Kd (HLA-B*35:01; [7]): 1600 nM
Kd (HLA-B*15:01 [6]): 9.45 nM

Sequence: GECPKFVFPL
Kd (HLA-B*18:01; [8]): ≥ 70500 nM
Kd (HLA-B*44:03; [8]): 671 nM
Kd (HLA-B*40:02; [8]): 1.28 nM
Kd (HLA-B*44:02; [8]): 952 nM
Kd (HLA-B*45:01; [8]): 3600 nM
Kd (HLA-B*40:01 [2]; [8]): 2.73 nM

Sequence: SDAALHNMI
Kd (HLA-B*18:01; [12]): ≥ 77500 nM
Kd (HLA-B*44:03; [12]): ≥ 31700 nM
Kd (HLA-B*40:02; [12]): 1930 nM
Kd (HLA-B*44:02; [12]): 7070 nM
Kd (HLA-B*45:01; [12]): 2120 nM
Kd (HLA-B*40:01 [2]; [12]): ≥ 35800 nM

Kd (HLA-A*24:03; source organism: Escherichia coli O157:H7): 3.5 nM
Sequence: RTLNELWFL

Sequence: YLKPKIWRF
Kd (HLA-B*08:01; source organism: Campylobacter jejuni subsp. jejuni 81-176): 8 nM

Sequence: IEELFYSYAT
Kd (HLA-B*18:01; [8]): 786 nM
Kd (HLA-B*44:03; [8]): 205 nM
Kd (HLA-B*40:02; [8]): 51.9 nM
Kd (HLA-B*44:02; [8]): 326 nM
Kd (HLA-B*45:01; [8]): 10.6 nM
Kd (HLA-B*40:01 [2]; [8]): 1520 nM

Sequence: GEILLLEWL
Kd (HLA-B*18:01; [8]): 4960 nM
Kd (HLA-B*44:03; [8]): 1.51 nM
Kd (HLA-B*40:02; [8]): 19500 nM
Kd (HLA-B*44:02; [8]): 9.44 nM
Kd (HLA-B*45:01; [8]): 843 nM
Kd (HLA-B*40:01 [2]; [8]): 0.363 nM

Sequence: YGGPISQHNY
Kd (HLA-B*35:01; source organism: Dengue virus 1 Brazil/97-11/1997): 406 nM
Kd (HLA-A*30:02): 192 nM

Sequence: EEVPTLIKTL
Kd (HLA-B*18:01; [13]): ≥ 70400 nM
Kd (HLA-B*44:03; [13]): 3320 nM
Kd (HLA-B*40:02; [13]): 6320 nM
Kd (HLA-B*44:02; [13]): 8590 nM
Kd (HLA-B*45:01; [13]): 3020 nM
Kd (HLA-B*40:01 [2]; [13]): 7520 nM

Sequence: SSTDQQEWM
Kd (HLA-B*57:01; [14]): ≥ 20000 nM
Kd (HLA-B*58:01; [14]): 3870 nM

Sequence: QELGKYEQYI
Kd (HLA-B*18:01; [8]): ≥ 70500 nM
Kd (HLA-B*44:03; [8]): 187 nM
Kd (HLA-B*40:02; [8]): 507 nM
Kd (HLA-B*44:02; [8]): 207 nM
Kd (HLA-B*45:01; [8]): ≥ 20600 nM
Kd (HLA-B*40:01 [2]; [8]): 13000 nM

Sequence: VSLTECPTF
Kd (HLA-B*57:01; source organism: Amur virus): 474 nM
Kd (HLA-B*58:01; source organism: Amur virus): 34.8 nM

Sequence: SDSVCACGL
Kd (HLA-B*18:01; [15]): ≥ 77500 nM
Kd (HLA-B*44:03; [15]): 2830 nM
Kd (HLA-B*40:02; [15]): 3880 nM
Kd (HLA-B*44:02; [15]): 3090 nM
Kd (HLA-B*45:01; [15]): 10600 nM
Kd (HLA-B*40:01 [2]; [15]): ≥ 44000 nM
